For experiment [1], the target named is synthetic acceptor peptide Pro-Pro-Ala-D-Ser-Thr-D-Ser-Ala-Pro-Gly.
The target in experiment [2] is T1, synthetic acceptor peptide Arg-Ser-Pro-Pro-Pro.
T1 sequence (peptide): RSPPP

Experiment [3] concerns the target T2, synthetic acceptor peptide Arg-Thr-Pro-Pro-Pro.
T2 sequence (peptide): RTPPP

For experiment [4], the target named is subtilisin, native.
The target in experiment [5] is subtilisin, reduced and carboxymethylated.
For experiment [6], the target named is myelin basic protein.
Experiment [7] concerns the target bovine cytochrome C, native (bovine) (UniProt P62894).
In experiment [8] the target is T3, bovine rhodanese, reduced and carboxymethylated (bovine) (UniProt P00586).
T3 sequence (chain, reduced and carboxymethylated): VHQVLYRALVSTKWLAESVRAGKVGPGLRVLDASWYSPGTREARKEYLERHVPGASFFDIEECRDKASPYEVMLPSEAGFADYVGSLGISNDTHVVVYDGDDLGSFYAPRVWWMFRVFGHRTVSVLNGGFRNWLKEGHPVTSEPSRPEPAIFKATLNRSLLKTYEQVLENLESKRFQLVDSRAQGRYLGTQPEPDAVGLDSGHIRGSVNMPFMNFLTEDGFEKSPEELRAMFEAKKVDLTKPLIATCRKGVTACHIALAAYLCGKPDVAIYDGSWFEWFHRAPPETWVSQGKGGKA

In experiment [9] the target is T4, bovine rhodanese, native (bovine) (UniProt P00586).
T4 sequence: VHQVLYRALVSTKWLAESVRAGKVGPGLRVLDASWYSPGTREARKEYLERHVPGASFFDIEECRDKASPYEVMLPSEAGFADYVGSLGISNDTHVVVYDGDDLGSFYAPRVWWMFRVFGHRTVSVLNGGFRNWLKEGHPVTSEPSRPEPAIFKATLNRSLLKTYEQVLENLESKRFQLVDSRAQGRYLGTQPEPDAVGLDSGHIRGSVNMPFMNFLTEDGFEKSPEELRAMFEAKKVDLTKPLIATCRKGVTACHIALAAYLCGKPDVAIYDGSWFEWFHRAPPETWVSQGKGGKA

Experiment [10] has as its target bovine cytochrome C, reduced and carboxymethylated (bovine) (UniProt P62894).

Bounds are passed on as bounds.

B1: bovine colostrum UDP-GalNAc:polypeptide, N-acetylgalactosaminyltransferase (purified soluble enzyme) (enzyme)
chain: GLPAGDVLEPVQKPHEGPGEMGKPVVIPKEDQEKMKEMFKINQFNLMASEMIALNRSLPDVRLEGCKTKVYPDNLPTTSVVIVFHNEAWSTLLRTVHSVINRSPRHMLEEIVLVDDASERDFLKRPLESYVKKLKVPVHVIRMEQRSGLIRARLKGAAVSKGQVITFLDAHCECTVGWLEPLLARIKHDRKTVVCPIIDVISDDTFEYMAGSDMTYGGFNWKLNFRWYPVPQREMDRRKGDRTLPVRTPTMAGGLFSIDRDYFQEIGTYDAGMDIWGGENLEISFRIWQCGGTLEIVTCSHVGHVFRKATPYTFPGGTGQIINKNNRRLAEVWMDEFKNFFYIISPGVTKVDYGDISSRLGLRHKLQCRPFSWYLENIYPDSQIPRHYFSLGEIRNVETNQCLDNMARKENEKVGIFNCHGMGGNQVFSYTANKEIRTDDLCLDVSKLNGPVTMLKCHHLKGNQLWEYDPVKLTLQHVNSNQCLDKATDEDSQVPSIRDCSGSRSQQWLLRNVTLPEIF
For B1, the Vmax /Km M^-1 s^-1 is 1.2 M⁻¹ s⁻¹ in experiment [1], 0.4 M⁻¹ s⁻¹ in experiment [2] and 183 M⁻¹ s⁻¹ in [3]. Also, in experiment [3], the Km was found to be 3.3 mM. The Product formed nmol/min/mg (transfer of N-acetylgalactosamine to protein acceptors) in experiment [4] is less than 0.1 nmol/min/mg; in [5], 0.6 nmol/min/mg; in experiment [6], 22.2 nmol/min/mg; in [7], less than 0.1 nmol/min/mg; in [8], 3.3 nmol/min/mg; in experiment [9], less than 0.1 nmol/min/mg. The Product formed nmol/min/mg (transfer of N-acetylgalactosamine to protein acceptors) in experiment [10] is less than 0.1 nmol/min/mg.

(Values after patent publication US6096512.)
